# Reference: paper PMC6872814, “Functional interactions between nitrite reductase and nitric oxide reductase from Paracoccus denitrificans” (Scientific Reports, 2019)
# Columns and labels:
# [1] = biological target: cytochrome c-dependent nitric oxide reductase (cNOR) from Paracoccus denitrificans, NorB and NorC, unlabelled (Paracoccus denitrificans) (UniProt Q51662)
# [2] = biological target: cytochrome c-dependent nitric oxide reductase (cNOR) from Paracoccus denitrificans, NorB and NorC, unlabelled (Paracoccus denitrificans) (UniProt Q51662); remark: listed apart in the source
# [3] = biological target: cytochrome c-dependent nitric oxide reductase (cNOR) from Paracoccus denitrificans, NorB and NorC, unlabelled (Paracoccus denitrificans) (UniProt Q51662); remark: listed apart in the source
# [4] = biological target: cytochrome c-dependent nitric oxide reductase (cNOR) from Paracoccus denitrificans, NorB and NorC, unlabelled (Paracoccus denitrificans) (UniProt Q51662); remark: listed apart in the source
# Sequence of horse heart cytochrome c (P00004 whole entry): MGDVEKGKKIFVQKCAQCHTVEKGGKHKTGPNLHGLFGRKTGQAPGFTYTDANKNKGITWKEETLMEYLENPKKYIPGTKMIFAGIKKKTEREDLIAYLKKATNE
# Sequence of cytochrome c-dependent nitric oxide reductase (cNOR) from Paracoccus denitrificans, NorB and NorC, unlabelled (Paracoccus denitrificans) (Q51662 whole entry, looked up): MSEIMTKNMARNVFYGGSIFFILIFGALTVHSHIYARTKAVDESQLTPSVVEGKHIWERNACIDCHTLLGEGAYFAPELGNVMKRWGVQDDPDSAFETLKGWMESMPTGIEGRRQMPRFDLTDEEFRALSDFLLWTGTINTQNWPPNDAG
# Sequence of cytochrome cd1 nitrite reductase (cd1NiR) from Paracoccus pantotrophus, labelled with Abberior STAR 635 (P72181 30-596): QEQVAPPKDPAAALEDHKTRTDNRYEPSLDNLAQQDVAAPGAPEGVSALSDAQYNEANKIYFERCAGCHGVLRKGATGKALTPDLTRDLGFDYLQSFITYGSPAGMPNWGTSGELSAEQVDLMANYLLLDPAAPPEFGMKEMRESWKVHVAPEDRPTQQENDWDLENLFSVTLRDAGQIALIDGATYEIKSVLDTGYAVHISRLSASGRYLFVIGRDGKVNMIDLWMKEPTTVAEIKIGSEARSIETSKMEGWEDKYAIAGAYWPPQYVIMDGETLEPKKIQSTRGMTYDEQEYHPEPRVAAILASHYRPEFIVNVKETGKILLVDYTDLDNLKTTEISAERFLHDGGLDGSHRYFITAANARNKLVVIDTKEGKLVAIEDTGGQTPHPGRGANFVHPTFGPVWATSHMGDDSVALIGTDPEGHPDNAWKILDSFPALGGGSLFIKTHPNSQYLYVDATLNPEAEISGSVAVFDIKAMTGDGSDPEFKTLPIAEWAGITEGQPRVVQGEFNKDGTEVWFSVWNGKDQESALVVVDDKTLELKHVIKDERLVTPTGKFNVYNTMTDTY
"inhibition of the maximum NO-reduction activity (kmax at ~5 µM NO) of 40 nM detergent-solubilized cNOR, cd1NiR 0-200 nM; the inhibition is released at higher cd1NiR [1] [%]","relative kmax (kcat of the fit) of NO reduction by liposome-reconstituted cNOR in the presence of ~30 nM cd1NiR, cyt. c titration; control without cd1NiR = 100% [2] [%]",Km for cyt. c of NO reduction by cNOR in detergent (0.05% DDM) [3] [µM],Km for cyt. c of NO reduction by liposome-reconstituted cNOR [3] [µM],Km for cyt. c of NO reduction by liposome-reconstituted cNOR in the presence of ~30 nM cd1NiR (unchanged against the control) [4] [µM],"Km for cyt. c of NO reduction by liposome-reconstituted cNOR, side-by-side control without cd1NiR [4] [µM]",Substance
50,46,,,,,"cytochrome cd1 nitrite reductase (cd1NiR) from Paracoccus pantotrophus, labelled with Abberior STAR 635 (from UniProt P72181 30-596) (enzyme)"
,,0.8,0.8,0.15,0.2,horse heart cytochrome c (from UniProt P00004 1-105) (natural protein)
